Measurements: publication PMC8951179

Tests used:
[1] = target: GST-Ku70_1–250_Q65A/Q68A (human) (UniProt P12956); test: pull-down; GST pull-down: 100 nM GST-Ku70 variant as bait on glutathione-agarose, 100 or 200 nM His6-IN; buffer A (20 mM Hepes pH 7.5, 100 mM NaCl, 7.5 mM MgCl2, 2 mM 2-mercaptoethanol, 50 µg/mL BSA, 0.1% NP40), room temperature; Western blot
[2] = target: GST-Ku70_1–250_S69A (human) (UniProt P12956); test: as above

## HIV-1 integrase carrying N-terminal His6-tag (natural protein)
[1]
  reduction in the protein binding efficiency (control Ku70 1–250): 10 to 15%
[2]
  IN binding activity, % of the wild-type protein: 55 to 73%
